According to paper PMC6751202, “An aggregon in conductin/axin2 regulates Wnt/β-catenin signaling and holds potential for cancer therapy” (Nature Communications, 2019):

Target: the molecule itself
Assay: native gel or EMSA; recombinant GST-RGS Cdt and GST-RGS Cdt QV-PS purified from bacteria; PAGE under non-denaturing conditions, Western blot

B1: GST-RGS Cdt (domain or fragment, mouse, UniProt O88566 67-208, looked up)
chain: GRASPDSPLTRWTKSLHSLLGDQDGAYLFRTFLEREKCVDTLDFWFACNGFRQMNLKDTKTLRVAKAIYKRYIENNSVVSKQLKPATKTYIRDGIKKQQIGSVMFDQAQTEIQAVMEENAYQVFLTSDIYLEYVRSGGENTA
notes: RGS domain of mouse conductin/axin2, amino acids 67-208; Cloned into pGEX-6P-1, which as far as I know puts GST at the N-terminus; GST itself can dimerise; also called isolated conductin RGS domain; recombinant GST-RGS Cdt; source: Rosetta (DE3) bacteria, purified (glutathione beads, eluted with free glutathione)
Q: Does B1 bind?
A: Result: binds
